From publication PMC10113159

Experiments:
Conditions in all cases: protein: recombinant; tags: untagged; copies: 1;1;1
[1] = target: T1, RPA heterotrimer (RPA1-RPA2-RPA3), WT (Homo sapiens, UniProt P27694;P15927;P35244 1-616;1-270;1-121); experiment: fluorescence microscopy, co-partitioning into RPA droplets; equimolar; co-assembly, indirect evidence of binding; Droplet assay buffer and temperature not in material; protein stored in diluted Sorensen phosphate buffer (43.4 mM Na2HPO4, 6.6 mM KH2PO4) pH 7.6, 150 mM KCl, 25 uM EDTA, 1 mM DTT
T1 sequence (P27694 whole entry, chain 1 of 3): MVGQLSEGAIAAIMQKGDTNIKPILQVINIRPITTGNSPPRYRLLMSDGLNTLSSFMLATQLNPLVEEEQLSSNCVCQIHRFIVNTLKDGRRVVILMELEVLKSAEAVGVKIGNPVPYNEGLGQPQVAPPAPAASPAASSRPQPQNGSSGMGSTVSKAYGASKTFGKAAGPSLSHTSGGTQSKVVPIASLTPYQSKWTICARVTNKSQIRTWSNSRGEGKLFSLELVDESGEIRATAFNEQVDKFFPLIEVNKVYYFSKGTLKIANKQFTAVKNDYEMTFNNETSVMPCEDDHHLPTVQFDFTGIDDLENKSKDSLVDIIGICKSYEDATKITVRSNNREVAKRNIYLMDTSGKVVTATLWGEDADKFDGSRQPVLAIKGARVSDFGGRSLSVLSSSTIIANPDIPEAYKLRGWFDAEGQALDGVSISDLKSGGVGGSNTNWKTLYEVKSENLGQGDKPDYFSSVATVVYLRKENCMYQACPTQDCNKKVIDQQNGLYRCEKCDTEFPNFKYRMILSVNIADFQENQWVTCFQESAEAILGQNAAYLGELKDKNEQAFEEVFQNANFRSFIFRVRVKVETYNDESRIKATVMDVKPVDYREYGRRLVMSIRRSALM
T1 sequence (P15927 whole entry, chain 2 of 3): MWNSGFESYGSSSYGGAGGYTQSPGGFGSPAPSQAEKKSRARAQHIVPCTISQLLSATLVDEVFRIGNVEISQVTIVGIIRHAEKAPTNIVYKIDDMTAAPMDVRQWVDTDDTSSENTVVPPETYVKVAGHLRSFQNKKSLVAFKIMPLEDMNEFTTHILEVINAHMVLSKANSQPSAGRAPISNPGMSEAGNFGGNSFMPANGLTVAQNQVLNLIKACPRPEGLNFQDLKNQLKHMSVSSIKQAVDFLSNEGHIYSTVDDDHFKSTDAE
T1 sequence (P35244 whole entry, chain 3 of 3): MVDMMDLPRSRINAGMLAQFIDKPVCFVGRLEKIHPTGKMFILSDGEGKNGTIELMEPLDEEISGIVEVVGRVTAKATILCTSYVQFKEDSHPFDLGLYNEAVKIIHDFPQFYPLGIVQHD

[2] = target: T1, RPA heterotrimer (RPA1-RPA2-RPA3), WT; experiment: fluorescence microscopy, co-partitioning into RPA droplets; equimolar; not enriched in droplets; Droplet assay buffer and temperature not in material; protein stored in diluted Sorensen phosphate buffer (43.4 mM Na2HPO4, 6.6 mM KH2PO4) pH 7.6, 150 mM KCl, 25 uM EDTA, 1 mM DTT
[3] = target: T1, RPA heterotrimer (RPA1-RPA2-RPA3), WT; experiment: fluorescence microscopy, co-partitioning into RPA droplets; equimolar; Droplet assay buffer and temperature not in material; protein stored in diluted Sorensen phosphate buffer (43.4 mM Na2HPO4, 6.6 mM KH2PO4) pH 7.6, 150 mM KCl, 25 uM EDTA, 1 mM DTT

**Q.** Does AATTGTTATCCGCTCAC (ssDNA) [FAM-17nt ssDNA] bind [1]?
**A.** Result: binds

**Q.** Does AGUCGUCGCUGCCAUAGCUUUCGAAUCCACUGUUCCACAU (ssRNA) [Cy3-40nt ssRNA] bind [2]?
**A.** Result: no binding

**Q.** Does ATGTGGAACAGTGGATTCGAAAGCTATGGCAGCGACGACT (ssDNA) [Cy3-40nt ssDNA] bind [3]?
**A.** Result: binds

**Q.** Does ATGTGGAACAGTGGATTCGAAAGCTATGGCAGCGACGACT (ssDNA) [FAM-40nt ssDNA] bind [3]?
**A.** Result: binds
